Source: patent US20090110678A1 (Eli Lilly, published 2009)

Legend:
[1] = target: T1, PDGFRα expressed on cells (PAE Rα, PC3-ML, SKLMS-1, U118) (human, UniProt P16234 24-1089); assay: cell-based or functional assay
[2] = target: T1, PDGFRα expressed on cells (PAE Rα, …); assay: cell-based PDGF blocking assay (Heldin et al. 1988); cells and PDGF isoform not named; cell-based PDGF blocking; cells and isoform not named
[3] = target: T2, Human PDGFRα extracellular domain (ECD) (human, UniProt P16234 24-528); assay: SPR, BIAcore 3000, PDGFRα ECD immobilized, antibody injected; Koff/Kon
T2 construct: extracellular domain; Bought reagent; also called PDGFRa ECD; PDGFRα ECD
Experimental: (§1) The kinetics of antibody binding to PDGFRα was measured using a BIAcore 3000 instrument (BIAcore, Inc., Piscataway, N.J.). PDGFRα ECD was immobilized onto a sensor chip and antibody was injected at various concentrations. Sensograms were obtained at each concentration and evaluated using the BIA Evaluation 2.0 program to determine the rate constants. The affinity constant, Kd, was calculated from the ratio of rate constants Koff/Kₒₙ.

[4] = target: T2, Human PDGFRα extracellular domain (ECD); assay: solid-phase blocking of iodinated PDGF binding to immobilized PDGFRα ECD; the table does not name the ligand, [125I]PDGF-AA by the legend of FIG. 13B; solid-phase PDGF blocking; ligand not named in Table 6
[5] = target: T2, Human PDGFRα extracellular domain (ECD); assay: solid-phase blocking assay: inhibition of [125I]PDGF-AA binding to immobilized PDGFRα ECD
[6] = target: T2, Human PDGFRα extracellular domain (ECD); assay: SPR, BIAcore 3000, PDGFRα ECD immobilized, antibody injected
Experimental: as §1

[7] = target: T2, Human PDGFRα extracellular domain (ECD); assay: direct binding ELISA on immobilized PDGFRα ECD (ED50, 50% maximum binding)
[8] = target: T2, Human PDGFRα extracellular domain (ECD); assay: solid-phase blocking of [125I]PDGF-BB binding to immobilized PDGFRα ECD; [125I]PDGF-BB as ligand, solid phase

T1 sequence (P16234 24-1089): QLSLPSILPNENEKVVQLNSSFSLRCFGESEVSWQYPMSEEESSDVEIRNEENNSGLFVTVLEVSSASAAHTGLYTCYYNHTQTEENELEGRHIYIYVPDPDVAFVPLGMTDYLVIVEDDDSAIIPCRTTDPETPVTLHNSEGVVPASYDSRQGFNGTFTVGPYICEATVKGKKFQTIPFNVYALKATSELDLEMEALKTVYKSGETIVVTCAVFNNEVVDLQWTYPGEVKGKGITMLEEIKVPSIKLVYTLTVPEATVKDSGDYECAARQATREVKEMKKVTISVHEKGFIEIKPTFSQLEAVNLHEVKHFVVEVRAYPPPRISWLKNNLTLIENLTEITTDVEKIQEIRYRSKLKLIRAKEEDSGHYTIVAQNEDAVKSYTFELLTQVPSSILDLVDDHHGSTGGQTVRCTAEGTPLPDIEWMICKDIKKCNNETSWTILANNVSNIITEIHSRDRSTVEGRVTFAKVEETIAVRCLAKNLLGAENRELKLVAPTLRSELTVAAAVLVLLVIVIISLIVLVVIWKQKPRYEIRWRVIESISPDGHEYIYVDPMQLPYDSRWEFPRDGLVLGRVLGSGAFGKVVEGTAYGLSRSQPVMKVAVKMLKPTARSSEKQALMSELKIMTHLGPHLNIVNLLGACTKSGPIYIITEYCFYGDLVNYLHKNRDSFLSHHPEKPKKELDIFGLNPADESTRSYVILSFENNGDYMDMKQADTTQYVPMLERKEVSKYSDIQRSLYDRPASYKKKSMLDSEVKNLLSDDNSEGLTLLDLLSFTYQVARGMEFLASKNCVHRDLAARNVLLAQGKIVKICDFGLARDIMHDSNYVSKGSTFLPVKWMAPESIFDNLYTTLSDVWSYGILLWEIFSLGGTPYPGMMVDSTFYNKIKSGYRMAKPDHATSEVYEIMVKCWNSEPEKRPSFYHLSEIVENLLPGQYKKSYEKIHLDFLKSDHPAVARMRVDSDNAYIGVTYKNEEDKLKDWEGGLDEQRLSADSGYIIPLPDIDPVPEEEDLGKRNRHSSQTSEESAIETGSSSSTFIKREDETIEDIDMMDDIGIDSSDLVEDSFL
T2 sequence (P16234 24-528): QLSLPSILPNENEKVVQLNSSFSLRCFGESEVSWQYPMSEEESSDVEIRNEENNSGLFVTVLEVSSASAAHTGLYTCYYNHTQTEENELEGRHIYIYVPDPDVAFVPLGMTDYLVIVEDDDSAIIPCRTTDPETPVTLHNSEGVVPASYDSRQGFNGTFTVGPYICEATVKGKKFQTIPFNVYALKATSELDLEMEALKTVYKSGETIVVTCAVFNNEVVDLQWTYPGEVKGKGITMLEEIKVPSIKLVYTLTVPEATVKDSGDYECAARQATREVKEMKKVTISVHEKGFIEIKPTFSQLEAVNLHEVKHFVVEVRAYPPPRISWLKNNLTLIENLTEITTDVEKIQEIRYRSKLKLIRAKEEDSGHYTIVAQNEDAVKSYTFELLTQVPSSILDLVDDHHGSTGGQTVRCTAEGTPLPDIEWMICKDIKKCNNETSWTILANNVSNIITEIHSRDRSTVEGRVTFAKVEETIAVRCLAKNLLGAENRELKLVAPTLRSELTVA

Binder	PDGFRα tyrosine phosphorylation in PAE Rα cells [1]	EC50, inhibition of PDGF-AA-induced thymidine incorporation in U118 cells [1]	IC50 [2]	Kd [3]	IC50 [4]	IC50 (read off the curve) [5]	koff [6]	EC50 [7]	IC50 [8]
PDGF-BB (ligand, UniProt P01127 82-190, looked up, 125I label in the blocking assay) SLGSLTIAEPAMIAECKTRTEVFEISRRLIDRTNANFLVWPPCVEVQRCSGCCNNRNVQCRPTQVQLRPVQVRKIEIVRKKPIFKKATVTLEDHLACKCETVAAARPVT	~5 fold (at 3 nmol/L)	–	–	–	–	–	–	–	–
IMC-3G3, human anti-PDGFRα monoclonal antibody (antibody, human IgG1, V domains shown, also called EMC-3G3; anti-PDGFRα antibody) VH: QLQLQESGPGLVKPSETLSLTCTVSGGSINSSSYYWGWLRQSPGKGLEWIGSFFYTGSTYYNPSLRSRLTISVDTSKNQFSLMLSSVTAADTAVYYCARQSTYYYGSGNYYGWFDRWDQGTLVTVSS VL: EIVLTQSPATLSLSPGERATLSCRASQSVSSYLAWYQQKPGQAPRLLIYDASNRATGIPARFSGSGSGTDFTLTISSLEPEDFAVYYCQQRSNWPPAFGQGTKVEIK	–	3.4 nM	0.58 nM	0.04 nM	0.24 nM	~0.3 nM	4.7e-05 s⁻¹	0.06 nM	0.43 nM
